Measured values: publication PMC7195491 (2020)
Substitutions are numbered along the chain they refer to. Numbers in names are those of the source.

T1: DIP-α (Drosophila melanogaster)
T1 chain: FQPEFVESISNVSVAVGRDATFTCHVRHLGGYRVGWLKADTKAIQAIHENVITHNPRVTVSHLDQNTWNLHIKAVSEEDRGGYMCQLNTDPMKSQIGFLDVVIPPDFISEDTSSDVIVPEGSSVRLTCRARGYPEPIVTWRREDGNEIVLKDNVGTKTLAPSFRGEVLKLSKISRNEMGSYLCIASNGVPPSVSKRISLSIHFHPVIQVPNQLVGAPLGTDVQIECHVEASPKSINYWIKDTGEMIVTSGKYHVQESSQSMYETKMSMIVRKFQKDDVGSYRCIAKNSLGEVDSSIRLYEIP

B1: Dpr11 K31V (domain or fragment)
chain: PYLDGYATSNVTTQIGTHAYLPCRVKQLGNKSVSWIRLRDGHILTVDRAVFIADQRFLAIKQPDKYWTLQIKYVQARDAGSYECQVSTEPVVSARVQLQVVVPRTEILGEPDRYVKAGSNVVLRCIVRGALEPPTFIMWYHGAEQLAADSRRHRTQLDPNLPEASGEGQSTIGSLIIESAKKRDTGNYTCSPSNSPSATVT
B2: Dpr11 (domain or fragment)
chain: B1 chain with V91K
B3: Dpr11 K31V,E29Q (domain or fragment)
chain: B1 chain with E89Q
B4: Dpr10 V31K Q29E (domain or fragment)
chain: YQRQSVSNNNHNNAEAKPTHAPPSHYPHGHKWNEPYFDLTMPRNITSLVGKSAYLGCRVKHLGNKTVAWIRHRDLHILTVGTYTYTTDQRFQTSYHRDIDEWTLQIKWAQQRDAGVYECQISTEPKRSYSVNLNIVDLIDAETSDIMQQYYNDDAFYIAENRVYQSSNDEFAGMFGPIQTVAVPTATILGGPDLYVDKGSTINLTCIIKFSPEPPTHIFWYHQDKVLSEETSGGRLKFKTIKSEETKSILLIYDADLLHSGKYSCYPSNTEIASIR
B5: Dpr10 (domain or fragment)
chain: B4 chain with E124Q, K126V
B6: Dpr10 V31K (domain or fragment)
chain: B4 chain with E124Q

Target: T1, DIP-α
Assay: SPR

Binder | Kd [µM]
B1 | > 300
B2 | > 500
B3 | > 300
B4 | 29.2
B5 | 1.3
B6 | 11.3
